Assay results taken from the supplement of paper PMC10065799, “High-throughput profiling of sequence recognition by tyrosine kinases and SH2 domains using bacterial peptide display” (eLife, 2023).

Assays:
SHP2-C SH2 = experiment: SH2 binding enrichment of the phosphorylated peptide, bacterial display (enrichment ratio); higher = better substrate or ligand; peptides without Tyr show the background
Grb2 SH2 = Grb2 SH2 (UniProt P62993); experiment: as above
c-Src SH2 = experiment: as above
c-Abl (mouse) = experiment: phosphorylation enrichment, bacterial display (enrichment ratio); higher = better substrate or ligand; peptides without Tyr show the background
c-Src = experiment: as above
FGFR3 = FGFR3 (UniProt P22607); experiment: as above
FGFR1 = FGFR1 (UniProt P11362); experiment: as above
Hck = Hck (UniProt P08631); experiment: as above
Fer (mouse) = experiment: as above
Jak2 = Jak2 (UniProt O60674); experiment: as above
Fyn = Fyn (UniProt P06241); experiment: as above
EPHB2 = EPHB2 (UniProt P29323); experiment: as above
MERTK = MERTK (UniProt Q12866); experiment: as above
Fes = Fes (UniProt P07332); experiment: as above
AncSZ = experiment: as above
EPHB1 = EPHB1 (UniProt P54762); experiment: as above
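Wherever SH2 binding enrichment of the phosphorylated peptide, bacterial display is given: peptide library displayed on the E. coli surface as eCPX fusions, selected cells deep-sequenced, score is each peptide's frequency after selection divided by its frequency in the input.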
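Wherever phosphorylation enrichment, bacterial display is given: 11-residue human phosphosite peptides and single-mutation variants displayed on the E. coli surface, counted by deep sequencing, each peptide's frequency after selection divided by its frequency in the unselected input library; frequency after pTyr selection over input frequency; kinase dosed for 20-30% of maximal phosphorylation in three min.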

Sequence of Fes (P07332 whole entry, looked up): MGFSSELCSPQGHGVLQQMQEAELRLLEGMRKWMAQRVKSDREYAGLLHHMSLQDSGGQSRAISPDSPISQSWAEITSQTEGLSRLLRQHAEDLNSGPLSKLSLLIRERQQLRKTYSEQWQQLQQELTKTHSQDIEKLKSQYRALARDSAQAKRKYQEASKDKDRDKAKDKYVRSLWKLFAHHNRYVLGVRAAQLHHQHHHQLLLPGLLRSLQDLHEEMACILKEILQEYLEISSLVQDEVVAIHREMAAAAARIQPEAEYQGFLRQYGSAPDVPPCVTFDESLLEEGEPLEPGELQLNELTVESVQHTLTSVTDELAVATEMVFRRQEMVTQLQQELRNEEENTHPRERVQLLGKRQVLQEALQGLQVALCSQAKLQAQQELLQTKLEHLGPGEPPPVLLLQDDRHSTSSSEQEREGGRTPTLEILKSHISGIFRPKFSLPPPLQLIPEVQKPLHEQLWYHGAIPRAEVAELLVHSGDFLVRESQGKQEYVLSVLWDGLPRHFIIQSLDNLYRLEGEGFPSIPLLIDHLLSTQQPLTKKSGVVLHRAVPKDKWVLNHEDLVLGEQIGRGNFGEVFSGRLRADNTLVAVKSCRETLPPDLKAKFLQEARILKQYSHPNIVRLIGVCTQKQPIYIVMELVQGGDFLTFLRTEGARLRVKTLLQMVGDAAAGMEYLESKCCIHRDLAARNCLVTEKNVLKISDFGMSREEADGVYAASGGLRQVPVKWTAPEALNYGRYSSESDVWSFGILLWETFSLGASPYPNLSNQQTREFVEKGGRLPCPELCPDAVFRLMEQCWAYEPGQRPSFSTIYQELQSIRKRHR
Sequence of MERTK (Q12866 whole entry, looked up): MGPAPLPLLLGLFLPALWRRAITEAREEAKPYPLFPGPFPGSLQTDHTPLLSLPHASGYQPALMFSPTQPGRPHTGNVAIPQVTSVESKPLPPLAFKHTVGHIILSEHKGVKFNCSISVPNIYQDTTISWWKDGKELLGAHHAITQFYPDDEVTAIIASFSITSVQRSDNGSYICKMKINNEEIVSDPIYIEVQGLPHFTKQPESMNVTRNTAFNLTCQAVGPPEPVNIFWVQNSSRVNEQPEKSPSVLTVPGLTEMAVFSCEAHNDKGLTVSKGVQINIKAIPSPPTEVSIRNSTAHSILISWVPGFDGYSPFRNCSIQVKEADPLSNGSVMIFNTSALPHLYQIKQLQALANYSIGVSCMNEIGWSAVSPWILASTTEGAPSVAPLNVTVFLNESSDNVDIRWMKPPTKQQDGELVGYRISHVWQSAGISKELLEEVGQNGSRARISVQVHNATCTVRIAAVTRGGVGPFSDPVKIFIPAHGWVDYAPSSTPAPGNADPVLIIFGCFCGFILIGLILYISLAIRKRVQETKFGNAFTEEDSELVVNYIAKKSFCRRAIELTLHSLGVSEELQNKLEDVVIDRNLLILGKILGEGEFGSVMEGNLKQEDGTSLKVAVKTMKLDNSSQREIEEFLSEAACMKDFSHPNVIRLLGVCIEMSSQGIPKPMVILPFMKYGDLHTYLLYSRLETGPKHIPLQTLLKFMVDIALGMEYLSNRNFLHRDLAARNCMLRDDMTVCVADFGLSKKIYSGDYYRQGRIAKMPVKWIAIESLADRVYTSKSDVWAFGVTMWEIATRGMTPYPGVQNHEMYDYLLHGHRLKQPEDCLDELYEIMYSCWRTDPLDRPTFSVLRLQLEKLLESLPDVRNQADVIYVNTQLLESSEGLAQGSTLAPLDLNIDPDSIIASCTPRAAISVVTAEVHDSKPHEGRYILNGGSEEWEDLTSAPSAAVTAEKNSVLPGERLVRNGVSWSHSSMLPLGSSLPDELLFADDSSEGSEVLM
Sequence of EPHB2 (P29323 whole entry, looked up): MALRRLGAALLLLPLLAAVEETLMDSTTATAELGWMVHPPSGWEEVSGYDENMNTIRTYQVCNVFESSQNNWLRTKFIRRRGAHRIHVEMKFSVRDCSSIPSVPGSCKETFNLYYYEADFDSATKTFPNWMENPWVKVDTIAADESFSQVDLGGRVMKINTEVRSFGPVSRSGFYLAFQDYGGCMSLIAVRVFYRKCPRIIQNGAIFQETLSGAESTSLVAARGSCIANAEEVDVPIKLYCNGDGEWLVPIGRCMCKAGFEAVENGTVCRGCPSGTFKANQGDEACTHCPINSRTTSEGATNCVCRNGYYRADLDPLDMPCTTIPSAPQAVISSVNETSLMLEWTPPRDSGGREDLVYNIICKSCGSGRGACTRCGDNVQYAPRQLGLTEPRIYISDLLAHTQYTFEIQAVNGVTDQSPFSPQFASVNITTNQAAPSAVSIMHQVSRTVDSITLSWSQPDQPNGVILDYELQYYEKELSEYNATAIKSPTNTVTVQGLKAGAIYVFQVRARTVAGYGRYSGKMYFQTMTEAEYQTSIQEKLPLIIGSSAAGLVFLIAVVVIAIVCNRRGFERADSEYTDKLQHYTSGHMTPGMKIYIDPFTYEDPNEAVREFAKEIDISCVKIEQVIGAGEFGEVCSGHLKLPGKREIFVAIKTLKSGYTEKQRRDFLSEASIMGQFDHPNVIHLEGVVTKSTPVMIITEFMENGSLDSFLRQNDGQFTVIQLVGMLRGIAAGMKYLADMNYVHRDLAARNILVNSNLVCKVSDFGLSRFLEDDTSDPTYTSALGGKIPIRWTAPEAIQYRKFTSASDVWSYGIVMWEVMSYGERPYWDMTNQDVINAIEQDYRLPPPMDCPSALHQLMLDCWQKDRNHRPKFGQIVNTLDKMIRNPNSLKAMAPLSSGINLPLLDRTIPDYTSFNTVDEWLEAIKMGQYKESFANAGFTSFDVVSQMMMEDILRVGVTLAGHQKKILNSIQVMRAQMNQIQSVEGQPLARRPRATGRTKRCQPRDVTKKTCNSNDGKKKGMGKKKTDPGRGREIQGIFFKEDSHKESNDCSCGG
Sequence of Jak2 (O60674 whole entry, looked up): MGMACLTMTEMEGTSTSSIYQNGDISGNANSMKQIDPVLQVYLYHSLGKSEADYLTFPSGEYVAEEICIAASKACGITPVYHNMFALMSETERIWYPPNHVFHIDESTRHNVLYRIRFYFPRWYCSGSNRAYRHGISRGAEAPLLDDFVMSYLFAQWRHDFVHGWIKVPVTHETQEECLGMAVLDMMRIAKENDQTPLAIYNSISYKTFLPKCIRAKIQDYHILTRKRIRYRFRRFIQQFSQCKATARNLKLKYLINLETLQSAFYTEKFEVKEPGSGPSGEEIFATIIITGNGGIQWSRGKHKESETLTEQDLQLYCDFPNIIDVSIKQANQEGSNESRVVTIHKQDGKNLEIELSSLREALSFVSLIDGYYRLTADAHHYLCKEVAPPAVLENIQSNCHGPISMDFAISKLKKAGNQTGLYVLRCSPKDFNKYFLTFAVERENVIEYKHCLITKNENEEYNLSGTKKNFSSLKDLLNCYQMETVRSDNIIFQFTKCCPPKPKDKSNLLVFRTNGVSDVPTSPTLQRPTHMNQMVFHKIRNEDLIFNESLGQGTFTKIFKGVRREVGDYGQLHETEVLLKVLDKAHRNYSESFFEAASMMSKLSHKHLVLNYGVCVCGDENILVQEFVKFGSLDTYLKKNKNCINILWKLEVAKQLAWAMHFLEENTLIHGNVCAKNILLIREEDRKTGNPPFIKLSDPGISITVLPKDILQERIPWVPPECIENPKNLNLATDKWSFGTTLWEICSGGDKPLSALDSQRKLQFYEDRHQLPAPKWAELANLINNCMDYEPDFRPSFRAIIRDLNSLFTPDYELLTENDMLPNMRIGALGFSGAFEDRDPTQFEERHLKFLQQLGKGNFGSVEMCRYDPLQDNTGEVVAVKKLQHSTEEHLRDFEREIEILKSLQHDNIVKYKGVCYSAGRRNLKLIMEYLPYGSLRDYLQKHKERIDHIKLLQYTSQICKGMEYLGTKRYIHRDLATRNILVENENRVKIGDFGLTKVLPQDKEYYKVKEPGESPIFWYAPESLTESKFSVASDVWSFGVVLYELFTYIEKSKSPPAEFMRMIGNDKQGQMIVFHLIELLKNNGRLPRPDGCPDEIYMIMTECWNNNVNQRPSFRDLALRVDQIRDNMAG
Sequence of FGFR3 (P22607 whole entry, looked up): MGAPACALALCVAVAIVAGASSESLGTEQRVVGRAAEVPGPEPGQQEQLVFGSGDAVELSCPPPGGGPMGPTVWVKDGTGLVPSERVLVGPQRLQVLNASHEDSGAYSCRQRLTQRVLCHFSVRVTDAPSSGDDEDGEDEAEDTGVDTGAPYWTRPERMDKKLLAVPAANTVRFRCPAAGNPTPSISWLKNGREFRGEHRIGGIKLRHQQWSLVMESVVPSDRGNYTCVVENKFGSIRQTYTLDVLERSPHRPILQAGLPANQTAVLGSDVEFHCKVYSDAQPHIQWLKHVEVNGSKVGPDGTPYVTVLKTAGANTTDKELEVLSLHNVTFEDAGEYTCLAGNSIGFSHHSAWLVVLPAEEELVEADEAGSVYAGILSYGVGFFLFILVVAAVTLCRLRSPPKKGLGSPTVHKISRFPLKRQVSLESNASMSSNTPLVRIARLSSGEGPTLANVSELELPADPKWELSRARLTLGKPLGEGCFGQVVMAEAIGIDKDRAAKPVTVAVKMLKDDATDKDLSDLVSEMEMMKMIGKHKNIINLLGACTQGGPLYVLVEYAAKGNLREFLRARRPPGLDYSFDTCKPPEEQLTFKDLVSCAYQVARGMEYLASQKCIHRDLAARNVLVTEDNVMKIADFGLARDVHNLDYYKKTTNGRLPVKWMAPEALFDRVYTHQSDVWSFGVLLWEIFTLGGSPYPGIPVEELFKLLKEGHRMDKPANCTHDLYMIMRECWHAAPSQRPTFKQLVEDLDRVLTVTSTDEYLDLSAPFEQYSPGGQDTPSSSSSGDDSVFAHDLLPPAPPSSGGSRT

Row | SH2 binding enrichment (SHP2-C SH2) | SH2 binding enrichment (Grb2 SH2) | SH2 binding enrichment (c-Src SH2) | Sequence | phosphorylation enrichment (c-Abl (mouse)) | phosphorylation enrichment (c-Src) | phosphorylation enrichment (FGFR3) | phosphorylation enrichment (FGFR1) | phosphorylation enrichment (Hck) | phosphorylation enrichment (Fer (mouse)) | phosphorylation enrichment (Jak2) | phosphorylation enrichment (Fyn) | phosphorylation enrichment (EPHB2) | phosphorylation enrichment (MERTK) | phosphorylation enrichment (Fes) | phosphorylation enrichment (AncSZ) | phosphorylation enrichment (EPHB1)
1 | 0.755 | 0.717 | 0.48 | GHNDVYILEHV [GRIN2A_Y1423_S1425L] | 0.54 | 2.94 | 0.594 | 0.43 | 1.04 | 0.567 | 0.668 | 4.4 | 0.518 | 0.378 | 1.03 | 0.861 | 0.452
2 | 1.05 | 0.817 | 0.481 | GINDDHGQLKN [NBN_Y679_Y679H] | 0.524 | 0.382 | 0.591 | 0.471 | 0.484 | 0.426 | 0.591 | 0.537 | 0.475 | 0.473 | 0.763 | 0.757 | 0.448
3 | 0.805 | 0.7 | 0.586 | SDFSSYARTSI [TERT_Y949_YF] | 0.55 | 0.506 | 0.613 | 0.514 | 0.453 | 0.56 | 0.798 | 0.488 | 0.625 | 0.477 | 0.834 | 0.877 | 0.546
4 | 0.612 | 0.88 | 0.514 | MSNFACVKREV [SCN1A_Y1694_Y1694C] | 0.506 | 0.446 | 0.592 | 0.486 | 0.51 | 0.437 | 0.674 | 0.449 | 0.45 | 0.383 | 0.911 | 0.768 | 0.49
5 | 0.67 | 0.567 | 0.558 | TLAHKYHGGGG [HBB_Y146_A141T] | 1.03 | 0.675 | 0.494 | 0.611 | 0.681 | 0.436 | 1.1 | 0.497 | 0.398 | 0.577 | 0.973 | 0.652 | 0.46
6 | 0.349 | 0.722 | 0.451 | KDQGGYTMHQD [MAPT_Y29] | 0.569 | 0.385 | 0.465 | 0.512 | 0.484 | 0.399 | 0.542 | 0.404 | 0.456 | 0.413 | 0.793 | 0.754 | 0.4
7 | 0.575 | 0.853 | 0.416 | KTTGGYAGGLS [KRT8_Y419_S417G] | 0.649 | 0.583 | 0.422 | 0.454 | 0.454 | 0.419 | 0.701 | 0.413 | 0.473 | 0.523 | 0.592 | 0.506 | 0.34
8 | 0.847 | 0.898 | 3.02 | PADCRYYAFPQ [GAMT_Y222] | 5.14 | 4.71 | 8.15 | 10.9 | 3.84 | 10.4 | 6.5 | 2.3 | 12.2 | 14.4 | 1.7 | 3.91 | 12.1
9 | 0.65 | 0.791 | 0.442 | TGNPAYRSFSN [IL4R_Y497_A492T] | 0.441 | 0.373 | 0.457 | 0.406 | 0.404 | 0.326 | 0.422 | 0.369 | 0.328 | 0.326 | 0.584 | 0.595 | 0.328
10 | 0.933 | 1.03 | 0.916 | FHRQLYHKCTH [F12_Y58_YF] | 0.502 | 0.375 | 0.442 | 0.387 | 0.425 | 0.398 | 0.623 | 0.371 | 0.495 | 0.385 | 0.76 | 0.601 | 0.855
11 | 0.46 | 0.695 | 0.36 | DGLALYTGSAL [COL6A3_Y524_S521L] | 0.749 | 0.635 | 0.723 | 0.479 | 0.901 | 0.758 | 0.901 | 0.614 | 0.936 | 0.55 | 1.17 | 1.09 | 0.968
12 | 0.601 | 1.06 | 0.601 | PPEFSYGLQTQ [SRA1_Y35_Q32E] | 0.661 | 0.486 | 0.772 | 0.568 | 0.416 | 0.453 | 0.997 | 0.446 | 0.802 | 0.428 | 1.09 | 0.724 | 0.565
13 | 0.775 | 0.642 | 0.502 | REEIKYMLWLS [OTC_Y55_G50R] | 0.944 | 0.474 | 1.4 | 0.961 | 0.786 | 0.955 | 1.15 | 0.661 | 0.992 | 0.734 | 1.58 | 1.23 | 0.697
14 | 0.809 | 0.952 | 0.574 | KLLPEYPGVLS [DHFR2_Y163] | 0.497 | 0.458 | 0.564 | 0.379 | 0.491 | 0.493 | 0.598 | 0.46 | 0.399 | 0.385 | 0.657 | 0.685 | 0.349
15 | 6.45 | 1.52 | 4.85 | CTTIHYTYMCN [TP53_Y234_N235T] | 0.672 | 0.549 | 0.704 | 0.724 | 0.524 | 0.591 | 1.04 | 0.496 | 0.761 | 0.517 | 1.07 | 1.08 | 0.608
16 | 0.702 | 0.803 | 0.555 | FDDDDYDTDFV [BLM_Y296] | 0.767 | 0.494 | 0.78 | 0.586 | 0.538 | 0.531 | 0.958 | 0.563 | 0.549 | 0.509 | 1.14 | 1.26 | 0.662
17 | 0.424 | 0.744 | 0.412 | MDQAEYQAKIQ [DHX58_Y518_R523Q] | 0.726 | 0.556 | 0.685 | 0.625 | 0.555 | 0.864 | 0.743 | 0.464 | 0.7 | 0.519 | 1.05 | 0.99 | 0.563

Row | SH2 binding enrichment (SHP2-C SH2) | SH2 binding enrichment (Grb2 SH2) | SH2 binding enrichment (c-Src SH2) | Sequence | phosphorylation enrichment (c-Abl (mouse)) | phosphorylation enrichment (c-Src) | phosphorylation enrichment (FGFR3) | phosphorylation enrichment (FGFR1) | phosphorylation enrichment (Hck) | phosphorylation enrichment (Fer (mouse)) | phosphorylation enrichment (Jak2) | phosphorylation enrichment (Fyn) | phosphorylation enrichment (EPHB2) | phosphorylation enrichment (MERTK) | phosphorylation enrichment (Fes) | phosphorylation enrichment (AncSZ) | phosphorylation enrichment (EPHB1)
18 | 0.732 | 0.871 | 0.45 | AKLDIYKRKVE [VWA3B_Y918_N916D] | 0.411 | 0.37 | 0.382 | 0.298 | 0.414 | 0.317 | 0.475 | 0.485 | 0.283 | 0.291 | 0.707 | 0.589 | 0.295
19 | 0.77 | 0.662 | 0.389 | VKMLEYLGKDV [CASP5_Y74] | 0.57 | 0.337 | 0.453 | 0.375 | 0.491 | 0.413 | 0.591 | 0.454 | 0.651 | 0.504 | 0.726 | 1.07 | 0.422
20 | 0.738 | 1.04 | 0.524 | LEDDMYRKTCT [XPA_Y257] | 1.17 | 0.624 | 1.67 | 1.24 | 0.984 | 1.37 | 1.56 | 1.78 | 1.03 | 0.848 | 2.56 | 2.07 | 1.15
21 | 1.35 | 0.642 | 1 | HPFNSYTFPRL [PAK5_Y316_S312P_YF] | 1.05 | 0.602 | 0.786 | 0.531 | 0.474 | 0.461 | 0.995 | 1.19 | 0.64 | 1.41 | 0.957 | 1.3 | 0.683
22 | 0.771 | 0.933 | 0.582 | GLRSFYETSKM [MAGED2_Y449_YF] | 0.806 | 0.437 | 0.42 | 0.385 | 0.506 | 0.505 | 0.707 | 0.331 | 0.342 | 0.374 | 0.739 | 0.596 | 0.438
23 | 0.473 | 0.733 | 0.429 | LSVEIHDRREY [ITGB7_Y753_Y753H] | 0.823 | 0.438 | 0.633 | 0.414 | 0.463 | 0.473 | 1.12 | 0.336 | 0.54 | 0.336 | 1.08 | 1.09 | 0.55
24 | 0.872 | 1.1 | 0.524 | FISLIYTNFEA [GSTP1_Y109_YF] | 2.21 | 4.67 | 1.12 | 0.683 | 2.56 | 2 | 1.3 | 4.29 | 0.793 | 3.6 | 1.55 | 1.56 | 1.11
25 | 0.822 | 0.754 | 0.458 | KEEEDYREENN [BMS1_Y651_K652R] | 0.877 | 0.536 | 0.79 | 0.582 | 0.65 | 0.585 | 1.15 | 0.5 | 0.528 | 0.601 | 1.24 | 1.3 | 0.63
26 | 0.896 | 0.996 | 0.508 | HGDSAYHSQRH [ERBB3_Y1132_R1127H] | 1.32 | 0.824 | 0.425 | 0.808 | 0.648 | 0.276 | 1.03 | 0.327 | 0.479 | 0.789 | 1.22 | 1.2 | 0.63
27 | 1.16 | 0.887 | 1.09 | FSQQTYFRVSN [ABCD1_Y180_YF] | 0.625 | 0.931 | 1.19 | 1.23 | 0.749 | 0.415 | 3.23 | 0.435 | 0.564 | 0.41 | 0.723 | 0.902 | 0.654
28 | 0.484 | 0.71 | 0.503 | TTPGPHRSIYF [MPG_Y71_Y71H] | 0.538 | 0.458 | 0.526 | 0.579 | 0.411 | 0.396 | 0.357 | 0.359 | 0.444 | 0.479 | 0.577 | 0.569 | 0.355
29 | 1.06 | 1.09 | 0.416 | LWPIWYRCHRP [MRGPRX1_Y130] | 1.15 | 0.466 | 1.02 | 1.04 | 0.699 | 0.702 | 1.17 | 0.798 | 0.893 | 0.804 | 1.63 | 1.86 | 0.721
30 | 0.502 | 0.637 | 0.413 | HKNNNYEPNLF [BRCA2_Y57] | 0.563 | 0.579 | 0.508 | 1.2 | 0.61 | 0.62 | 0.477 | 0.577 | 0.89 | 0.539 | 0.767 | 0.739 | 1.95
31 | 0.701 | 0.944 | 0.485 | RIVEIYSRSLQ [GCH1_Y175_R178S] | 1.07 | 1.28 | 1.67 | 0.753 | 2.61 | 0.87 | 0.895 | 1.52 | 0.985 | 1.17 | 1.95 | 1.43 | 1.03
32 | 0.653 | 0.88 | 0.472 | SVIKEYQIRQV [USH2A_Y3623_G3618S] | 0.409 | 0.381 | 0.509 | 0.377 | 0.443 | 0.415 | 0.567 | 0.352 | 0.346 | 0.328 | 0.68 | 0.648 | 0.505
33 | 0.736 | 0.974 | 1.03 | YPLELYERVRI [PRKCG_Y312_M317I] | 0.58 | 0.493 | 0.56 | 0.459 | 1.74 | 4.38 | 0.895 | 0.584 | 1.23 | 0.437 | 1.01 | 1.08 | 1.9
